Legend:
[1] = target: T1, HA-p62 and GFP-p62 interaction (Homo sapiens, UniProt Q13501); test: Co-IP of HA-p62 and GFP-p62 interaction; format: cell-based; details: Hela-V5-tau cells
T1 construct: #38277; host or cells: Hela-V5-tau cells
Excerpt: FIGS. 12A to 12E show β-arrestin2 interacts with p62, and β-arrestin2 oligomerization inhibits p62 self-interaction. FIG. 12A contains representative confocal images of mCherry and EGFP in Hela-V5-tau cells transfected with mCherry-GFP-p62 together with control vector, β-arrestin2-flag, or β-arrestin2 ΔIP6N-flag (Scale bar=10 μm). […] The box and whisker plots show all data points, and the box plots show all data points, the median and IQR, and the minimal and maximal values. FIG. 12C contains representative immunoblots of indicated proteins from Hela-V5-tau cells transfected GFP or GFP-β-arrestin2 with/without HA-p62. Note that β-arrestin2 is present in HA immune complexes only in the presence of HA-p62, whereas β-arrestin2 is not detected in control IgG beads. […] Lysates were subjected to IP for HA. […] FIG. 12F show quantification of flag/p62 PLA puncta/cell (N=4 independent experiments, #P<0.0001).
(§1) Brain homogenates and cultured cells were lysed with RIPA buffer (50 mM Tris pH 7.4, 150 mM NaCl, 2 mM ethlenediaminetetraacetic acid, 1% NP-40, 0.1% sodium dodecyl sulfate) plus protease and phosphatase inhibitors. Proteins were extracted and centrifuged at 15000 rpm for 15 min at 4° C., and RIPA insoluble fractions were lysed with 5% SDS with 1% β-mercaptoethanol, 50 mM Tris-HCl pH 6.8, 12.5 mM EDTA, 10% glycerol, and 0.02% bromophenol blue. […]

p62 autophagy flux = details: primary neurons, rAAV9 mCherry-EGFP-p62
Excerpt: To directly test this hypothesis, the mCherry-EGFP-p62 autophagy flux reporter was used. This reporter takes advantage of the sensitivity of GFP to low pH (which quenches the signal) and the insensitivity of mCherry to low pH. Therefore, colocalized red and green puncta are indicative of non-lysosomal p62 at steady-state.

[2] = test system: tauopathy in tau P301S mice; test: rAAV9 stereotaxic injection into hippocampus of 5-month old tau P301S mice; format: in vivo
Experimental: Cells were fixed with 4% paraformaldehyde for 15 min at room temperature and washed with 0.2% triton in TBS and blocked using 3% BSA with 0.1% triton x-100 for 1 hr, incubated with primary antibodies for overnight at 4° C. and fluorescently labeled secondary antibodies for 45 min at room temperature. For immunohistochemistry, mice were perfused with PBS and fixed with 4% paraformaldehyde. 25-micron sections were blocked using normal goat serum for 1 h and incubated with primary antibodies at 4° C. overnight, followed by secondary antibody incubation for 1 h at room temperature prior to mounting. Images were captured with the Olympus FV10i confocal microscope (Tokyo, Japan), and the immunoreactivities were quantified using the Image J software (National Institutes of Health, Bethesda, MD). Immunoreactivities were quantitated from every 12th serial section through an entire hippocampus. In ICC and IHC experiments, all comparison images were acquired with identical laser intensity, exposure time, and filter. Adjustments to the brightness/contrast were applied equally to all comparison images. Regions of interest were chosen randomly, and investigators were blinded to experimental conditions during image acquisition and quantification.
as §1, with “blue. Supernatants were used for western blot analysis. supernatants were used for western blot analysis. co-IP experiments were carried out from NP40 lysates or indicated buffers with preclearing with IgG beads followed by IP with IgG beads alone or IgG beads+indicated antibodies, extensive washing (5×) with the original buffer, and Western blotting on SDS-PAGE.” for “blue.”

activated GPCRs = details: cited from earlier work

B1: β-arrestin2 ΔIP6N: β-arrestin2 N-terminal domain mutant (K158A, K161A, and R162A), incapable of forming oligomers; dominant negative (protein, UniProt P32121 1-409, looked up, variant K158A K161A R162A)
Beta-arrestin-2: MGEKPGTRVFKKSSPNCKLTVYLGKRDFVDHLDKVDPVDGVVLVDPDYLKDRKVFVTLTCAFRYGREDLDVLGLSFRKDLFIATYQAFPPVPNPPRPPTRLQDRLLRKLGQHAHPFFFTIPQNLPCSVTLQPGPEDTGKACGVDFEIRAFCAKSLEEASHAANSVRLVIRKVQFAPEKPGPQPSAETTRHFLMSDRSLHLEASLDKELYYHGEPLNVNVHVTNNSTKTVKKIKVSVRQYADICLFSTAQYKCPVAQLEQDDQVSPSSTFCKVYTITPLLSDNREKRGLALDGKLKHEDTNLASSTIVKEGANKEVLGILVSYRVKVKLVVSRGGDVSVELPFVLMHPKPHDHIPLPRPQSAAPETDVPVDTNLIEFDTNYATDDDIVFEDFARLRLKGMKDDDYDDQLC
modifications: GFP or YFP tag
notes: dominant negative
[1]
  HA-p62 and GFP-p62 interaction by co-IP: neither β-arrestin2 ΔIP6C nor β-arrestin2 ΔIP6N alone were capable of reducing HA-p62 and GFP-p62 interaction
p62 autophagy flux
  ratio of mCherry only to total puncta: significantly increased
[2]; cells verified by GFP tags
  tau levels in individual brain cells with verified expression: essentially undetectable
[2]; expressing neurons vs GFP-expressing control or non-infected neurons
  HT7-immunoreactive tau: significant reductions
[2]; tau P301S mice, two months post injection, vs GFP control
  sarkosyl-insoluble tau: markedly reduced
Activated GPCRs
  binding to activated GPCRs: bind to activated GPCRs with WT affinity

From patent publication US11896644B2, “Inhibition of beta-arrestin oligomerization in tauopathy” (UNIVERSITY OF SOUTH FLORIDA, priority 2020, dated 2024)
